Measurements published in publication PMC9881219, “The NTPase activity of the double FYVE domain–containing protein 1 regulates lipid droplet metabolism” (The Journal of Biological Chemistry, 2022).
Substitutions are numbered along the chain they refer to. Numbers in names are those of the source.

B1: full-length FLAG-DFCP1 (human double FYVE domain-containing protein 1) (natural protein, UniProt Q9HBF4 1-777, looked up)
chain: MSAQTSPAEKGLNPGLMCQESYACSGTDEAIFECDECCSLQCLRCEEELHRQERLRNHERIRLKPGHVPYCDLCKGLSGHLPGVRQRAIVRCQTCKINLCLECQKRTHSGGNKRRHPVTVYNVSNLQESLEAEEMDEETKRKKMTEKVVSFLLVDENEEIQVTNEEDFIRKLDCKPDQHLKVVSIFGNTGDGKSHTLNHTFFYGREVFKTSPTQESCTVGVWAAYDPVHKVAVIDTEGLLGATVNLSQRTRLLLKVLAISDLVIYRTHADRLHNDLFKFLGDASEAYLKHFTKELKATTARCGLDVPLSTLGPAVIIFHETVHTQLLGSDHPSEVPEKLIQDRFRKLGRFPEAFSSIHYKGTRTYNPPTDFSGLRRALEQLLENNTTRSPRHPGVIFKALKALSDRFSGEIPDDQMAHSSFFPDEYFTCSSLCLSCGVGCKKSMNHGKEGVPHEAKSRCRYSHQYDNRVYTCKACYERGEEVSVVPKTSASTDSPWMGLAKYAWSGYVIECPNCGVVYRSRQYWFGNQDPVDTVVRTEIVHVWPGTDGFLKDNNNAAQRLLDGMNFMAQSVSELSLGPTKAVTSWLTDQIAPAYWRPNSQILSCNKCATSFKDNDTKHHCRACGEGFCDSCSSKTRPVPERGWGPAPVRVCDNCYEARNVQLAVTEAQVDDEGGTLIARKVGEAVQNTLGAVVTAIDIPLGLVKDAARPAYWVPDHEILHCHNCRKEFSIKLSKHHCRACGQGFCDECSHDRRAVPSRGWDHPVRVCFNCNKKPGDL
notes: Human DFCP1 (ZFYVE1), UniProt Q9HBF4, full length; A TEV site lies between FLAG and DFCP1; no cleavage is described for this protein; The domain diagram gives 1-777 for the full-length protein; also called FL DFCP1; FL hsDFCP1; not shown: FLAG, N-terminal, kept
B2: MBP-DFCP1 (112-415), WT NTPase domain of mouse DFCP1 (domain or fragment, UniProt Q810J8 112-415, looked up)
chain: NKRRHPITVYLVSKVQESLEGEEMDEETKRKKMTERVVSFLLVDENEEIQVTNEEDFIRKLDCKPDQHLKVVSIFGNTGDGKSHTLNHTFFYGREVFKTSPAQESCTVGVWAAYDPVHKVAVIDTEGLLGATVNLSQRTRLLLKVLAISDLVIYRTHADRLHNDLFKFLGDASEAYLKHFTKELKATTARCGLDVPLSTLGPAVIIFHETVHTQLLGSDHPSEAPEKLIQDRFRKLGRFPEAFSSIHYKGTRTYNPPTDFSGLRRALEQLLENNTTRSPRHPGVIFKALKALSDRFSGEIPDDQ
notes: Mouse DFCP1, UniProt Q810J8, residues 112-415 (NTPase domain, 98.8% identical to human DFCP1), in pMal-c2e; MBP was removed with TEV protease only after the SEC step, for the nucleotide hydrolysis assays; also called WT (112-415); DFCP1 NTPase domain; source: E. coli Rosetta (DE3), purified (amylose resin, Superdex 200 SEC); not shown: MBP, N-terminal, kept
B3: MBP-DFCP1 (112-415) K193A (domain or fragment, mouse, UniProt Q810J8 112-415, looked up)
chain: B2 chain with K82A
notes: Mouse DFCP1, UniProt Q810J8, residues 112-415 (NTPase domain) with K193A, in pMal-c2e; also called KA; K193A NTPase domain; source: E. coli Rosetta (DE3), purified (amylose resin, Superdex 200 SEC); not shown: MBP, N-terminal, kept
B4: MBP-DFCP1 (112-415) R266Q (domain or fragment, mouse, UniProt Q810J8 112-415, looked up)
chain: B2 chain with R155Q
notes: Mouse DFCP1, UniProt Q810J8, residues 112-415 (NTPase domain) with R266Q, in pMal-c2e; R266Q is a cancer-related mutation found in human patients (endometrial and colorectal cancers); Here it was introduced into the mouse NTPase domain by mutagenesis; also called RQ; RQm/RQd (monomeric/dimeric states); source: E. coli Rosetta (DE3), purified (amylose resin, Superdex 200 SEC); not shown: MBP, …
B5: MBP-DFCP1 (112-415) K193A/R266Q (domain or fragment, mouse, UniProt Q810J8 112-415, looked up)
chain: B2 chain with K82A, R155Q
notes: Mouse DFCP1, UniProt Q810J8, residues 112-415 (NTPase domain) with both K193A and R266Q, in pMal-c2e; also called KARQ; KA/RQ; source: E. coli Rosetta (DE3), purified (amylose resin, Superdex 200 SEC); not shown: MBP, N-terminal, kept

Tests used:
[1] = molecular target: the molecule itself; assay: SEC; full-length FLAG-DFCP1 on Superose 6; 25 mM Tris pH 8, 150 mM NaCl, 1 mM DTT, 1 mM MgCl2; monomer and dimer peaks
[2] = molecular target: the molecule itself; assay: SEC; MBP-DFCP1 (112-415) constructs on HiLoad 26/600 Superdex 200 pg; 25 mM Tris pH 8.0, 150 mM NaCl, 1 mM MgCl2, 1 mM DTT; monomer and dimer peaks

Protein | binding result [1] | binding result [2]
B1 | binds | –
B2 | – | binds
B3 | – | binds
B4 | – | binds
B5 | – | binds
